Fewer inactive variants are shown than the library holds.
Tests used:
biotinyl-Ile-oxazolone = test: self-aminoacylation, catalytic enhancement (BIO) (fold over background); higher = more active; k-Seq, kA / k0A0; sequences stand for … in GGGAAUGGAUCCACAUCUACGAAUUC…UUCACUGCAGACUUGACGAAGCUG
Outline: (§1)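 Each biotinyl-aminoacyl-oxazolone, at 2–1250 μM, was incubated with mutagenized RNA pools (0.43 μM) carrying a 21-nt variable region. The 50 μL reactions contained HEPES/NaCl/KCl/MgCl2/CaCl2 buffer with 5% acetonitrile at pH 6.9–7.0 and ran for 90 minutes at room temperature. After streptavidin capture, RNA was measured by qPCR in triplicate and by Illumina sequencing, and catalytic enhancement was calculated as median kA over the uncatalyzed rate from a pseudo-first-order fit of per-sequence fraction reacted.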

biotinyl-Leu-oxazolone = test: self-aminoacylation, catalytic enhancement (BLO) (fold over background); higher = more active; k-Seq, kA / k0A0; sequences stand for … in GGGAAUGGAUCCACAUCUACGAAUUC…UUCACUGCAGACUUGACGAAGCUG
Outline: as §1

biotinyl-Met-oxazolone = test: self-aminoacylation, catalytic enhancement (BMO) (fold over background); higher = more active; k-Seq, kA / k0A0; sequences stand for … in GGGAAUGGAUCCACAUCUACGAAUUC…UUCACUGCAGACUUGACGAAGCUG
Outline: as §1

biotinyl-Trp-oxazolone = test: self-aminoacylation, catalytic enhancement (BWO) (fold over background); higher = more active; k-Seq, kA / k0A0; sequences stand for … in GGGAAUGGAUCCACAUCUACGAAUUC…UUCACUGCAGACUUGACGAAGCUG
Outline: as §1

biotinyl-Phe-oxazolone = test: self-aminoacylation, catalytic enhancement (BFO) (fold over background); higher = more active; k-Seq, kA / k0A0; sequences stand for … in GGGAAUGGAUCCACAUCUACGAAUUC…UUCACUGCAGACUUGACGAAGCUG
Outline: as §1

biotinyl-Val-oxazolone = test: self-aminoacylation, catalytic enhancement (BVO) (fold over background); higher = more active; k-Seq, kA / k0A0; sequences stand for … in GGGAAUGGAUCCACAUCUACGAAUUC…UUCACUGCAGACUUGACGAAGCUG
Outline: as §1

Sequence | self-aminoacylation (biotinyl-Ile-oxazolone) | self-aminoacylation (biotinyl-Leu-oxazolone) | self-aminoacylation (biotinyl-Met-oxazolone) | self-aminoacylation (biotinyl-Trp-oxazolone) | self-aminoacylation (biotinyl-Phe-oxazolone) | self-aminoacylation (biotinyl-Val-oxazolone)
AAGUUUGCUAAUACUCGCAAG [Fam3.1 aminoacylation ribozyme variant] | 0.659 | 0.553 | 0.569 | 0.607 | 0.812 | 0.652
AAGUUUGCUAAUACUCGUAAG [Fam3.1 aminoacylation ribozyme variant] | 0.57 | 0.559 | 0.547 | 0.557 | 0.706 | 0.636
AAGUUUGCUAAUAGACUCAAG [Fam3.1 aminoacylation ribozyme variant] | 0.416 | 0.313 | 0.332 | 0.449 | 0.758 | 0.427
AAGUUUGCUAAUAGAUGCAAG [Fam3.1 aminoacylation ribozyme variant] | 0.954 | 0.82 | 0.789 | 0.784 | 0.814 | 0.911
AAGUUUGCUAAUAGCCGAAAG [Fam3.1 aminoacylation ribozyme variant] | 1.09 | 1.03 | 0.766 | 1.28 | 1.6 | 0.677
AAGUUUGCUAAUAGCCGCAGG [Fam3.1 aminoacylation ribozyme variant] | 0.792 | 0.765 | 0.745 | 0.916 | 0.671 | 0.853
AAGUUUGCUAAUAGCCGGAAG [Fam3.1 aminoacylation ribozyme variant] | 1.25 | 1.4 | 1.14 | 2.38 | 3.2 | 1.25
AAGUUUGCUAAUAGGCGCAAA [Fam3.1 aminoacylation ribozyme variant] | 1.46 | 1.74 | 1.63 | 1.48 | 1.74 | 1.1
AAGUUUGCUAAUAGUAGCAGG [Fam3.1 aminoacylation ribozyme variant] | 1.08 | 1.08 | 1.16 | 0.837 | 1.71 | 0.985
AAGUUUGCUAAUAGUAGCAUG [Fam3.1 aminoacylation ribozyme variant] | 1.04 | 0.991 | 0.815 | 1.03 | 1.67 | 0.851
AAGUUUGCUAAUAGUCACCAG [Fam3.1 aminoacylation ribozyme variant] | 0.949 | 0.762 | 0.962 | 1.21 | 2.77 | 0.997
AAGUUUGCUAAUAGUCCUAAG [Fam3.1 aminoacylation ribozyme variant] | 1.21 | 1.05 | 1.31 | 4.71 | 14.5 | 1.13
AAGUUUGCUAAUAGUCGAAAU [Fam3.1 aminoacylation ribozyme variant] | 1.31 | 1.01 | 1.39 | 2 | 1.52 | 1.37
AAGUUUGCUAAUAGUCGCAGA [Fam3.1 aminoacylation ribozyme variant] | 1.54 | 1.12 | 1.03 | 0.729 | 1.77 | 0.914
AAGUUUGCUAAUAGUCGCAGG [Fam3.1 aminoacylation ribozyme variant] | 1.29 | 1.38 | 1.31 | 1.45 | 2.2 | 1.31
AAGUUUGCUAAUAGUCGCCAU [Fam3.1 aminoacylation ribozyme variant] | 1.27 | 1.24 | 1.44 | 1.08 | 0.768 | 1.2
AAGUUUGCUAAUAGUCGCGAU [Fam3.1 aminoacylation ribozyme variant] | 1.46 | 1.47 | 1.33 | 1.86 | 1.53 | 1.37
AAGUUUGCUAAUAGUCGCUGG [Fam3.1 aminoacylation ribozyme variant] | 1.21 | 0.78 | 1.67 | 1.18 | 1.72 | 1.25
AAGUUUGCUAAUAGUCGGAAC [Fam3.1 aminoacylation ribozyme variant] | 1.05 | 0.951 | 1.01 | 1.05 | 0.662 | 0.851
AAGUUUGCUAAUAGUCGGCAG [Fam3.1 aminoacylation ribozyme variant] | 0.923 | 0.983 | 0.98 | 1.28 | 1.3 | 0.785
AAGUUUGCUAAUAGUCGUACG [Fam3.1 aminoacylation ribozyme variant] | 0.65 | 0.524 | 0.547 | 0.579 | 1.11 | 0.565
AAGUUUGCUAAUAGUGGAAAG [Fam3.1 aminoacylation ribozyme variant] | 1.21 | 0.876 | 1.2 | 0.946 | 0.794 | 0.944
AAGUUUGCUAAUAUGCGCAAG [Fam3.1 aminoacylation ribozyme variant] | 0.847 | 0.843 | 0.89 | 1.2 | 1.34 | 0.61
AAGUUUGCUAAUAUUCGUAAG [Fam3.1 aminoacylation ribozyme variant] | 0.83 | 0.636 | 0.616 | 0.911 | 0.919 | 0.779
AAGUUUGCUAAUGAUCGCAAG [Fam3.1 aminoacylation ribozyme variant] | 0.697 | 0.52 | 0.488 | 0.749 | 0.952 | 0.603
AAGUUUGCUAAUGGACGCAAG [Fam3.1 aminoacylation ribozyme variant] | 0.591 | 0.83 | 0.604 | 0.56 | 1.18 | 0.576

— the supplement of paper PMC9233669
